Data: patent publication US20250340661A1 (JIANGSU HENGRUI PHARMACEUTICALS, published 2025)
Changes are numbered by the printed parent chain. Names may count otherwise.

B1: 9F10 human-rabbit chimeric anti-CD40 antibody (antibody, human IgG1, V domains shown)
VH: QSVKESEGGLFKPTDTLTLTCTVSGFSLSSYDMSWVRQAPGNGLEWIGAIGGAGGTYYASWAKSRSTITRNTNLNTVTLKMTSLTAADTATYFCTRGWTRLDLWGQGTLVTVSS
VL: DIVLTQTESPVSGPVGGTVTINCQASEDISSNLAWYQQKPGQPPKLLIYAASNLASGVPSRFKGSGSGTEFTLTISDLECADAATYYCQGAYWSSTSYFGNGFGGGTQVVVK
B2: 9E6 human-rabbit chimeric anti-CD40 antibody (antibody, human IgG1, V domains shown)
VH: B1 VH with K4R, F11V, T82S, T95A
VL: B1 VL with E8P, P14A, N22K, Y49F, A50P, P59S, A91G, S94T, Y98N, Q108E
B3: 5A9 human-rabbit chimeric anti-CD40 antibody (antibody, human IgG1, V domains shown)
VH: B1 VH with V23A, G25R, V77L, T95A
VL: B1 VL with E8A, P14A, A25S, A34S, A91G, S95G, T96I, Y98N, Q108E
B4: 2F12 human-rabbit chimeric anti-CD40 antibody (antibody, human IgG1, V domains shown)
VH: QSVKESEGGLFKPKDTLTLTCTVSGFSLSSYGVSWVRQAPGNGLEWIGGIGSDGSAYYASWAKSRATITRDTNLKTVTLEMTSLTAADTATYFCARGGITVYAMWGPGTLVTVSS
VL: AFELTQTPASVEAAMGGTVTIKCQASQSISNGLAWYQQKPGQPPKLLIVGASNLASGVSSRFKGSGSGTEFTLSISDLECADGATYYCQSYFSSSSTVFGGGTEVVVK
notes: Rabbit variable regions joined to human IgG1 constant region with N297A (Eu) and human kappa constant region
B5: 5B8 human-rabbit chimeric anti-CD40 antibody (antibody, human IgG1, V domains shown)
VH: B4 VH with K14T, S29N, G49A, D53S, K63R, A66S, K75N, E80K, M104I
VL: AFELTQTPSPVSAAVGGTVTINCQASEDITNGIAWYQQKPGQPPKLLIAGASNLASGVSSRFKGSGSGTEFTLTISDLECDDAATYYCQSYYSSSYTIFGGGTEVVVK
B6: 8C12 human-rabbit chimeric anti-CD40 antibody (antibody, human IgG1, V domains shown)
VH: B4 VH with K14T, A86V, M104I
VL: B4 VL with A9S, S10P, E12S, M15V, L46V
B7: 4D4 human-rabbit chimeric anti-CD40 antibody (antibody, human IgG1, V domains shown)
VH: B4 VH with K14T, M104I
VL: B4 VL with A9S, S10P, E12S, M15V, L46V
B8: 8G10 human-rabbit chimeric anti-CD40 antibody (antibody, human IgG1, V domains shown)
VH: QSVKESEGGLFKPTATLTLTCTVSGFSLSSYGVSWVRQAPGSGLEWIGGIASTGTTYYANWAKSRSTITRDTNLKTVTLKMTSLTAADTATYFCARGGITAYAIWGPGTLVTVSS
VL: B4 VL with A9S, M15V, S30T, V49A, S74T, G83A, F92Y, S93D
B9: 4F6 human-rabbit chimeric anti-CD40 antibody (antibody, human IgG1, V domains shown)
VH: B4 VH with K14A, G25R, S34T, G49A, D53T, A66S, K75N, E80K, V101A, M104I
VL: AFELTQTPSSVEAAVGGTVTIKCQASQSISNGLAWYQQKPGQPPKLLIAGASNLASGVSSRFKGSGSGIEFILTISDLECADAATYYCQSYYNSFTTVFGGGTEVVVK
B10: 10A4 human-rabbit chimeric anti-CD40 antibody (antibody, human IgG1, V domains shown)
VH: QSLEESGGRLVTPGGSLTLTCTVSGIDLSRNAISWVRQSPGNGLEWIGGIGSSGSAYYASWAKSRSTITRDTNLNTVTLKMTSLTAADTATYFCARDGYAGSSWGIYYGMDPWGPGTLVTVSS
VL: AIEMTQSPPSLSASVGETVRIRCLASEDIYRGISWYQQKPGKPPTLLIYGASTLQSGVPPRFSGSGSGTDYTLTIGGVQAEDAATYYCLGGHSYSSAGLTFGAGTKVEIK
B11: 3F6 human-rabbit chimeric anti-CD40 antibody (antibody, human IgG1, V domains shown)
VH: QSVKESEGGLFKPTDTLTLTCTVSGFSLSSYAISWVRQAPGNGLEWIGAIDRYGTTYYATWAKSRSTITRNTNENTVTLKMTSLTAADTATYFCARGPWYYGGDVAWTGSFDPWGPGTLVTVSS
VL: AQVLTQTASPVSAAVGGTVTISCQSSQSVANNDFLSWYQQKPGQPPKLLIYGASTLASGVPSRFRGNGSGTQFTLTITGMQCDDAATYFCTGGYAGPIYIFGGGTEVVVK
B12: humanized anti-CD40 antibody 9E6-L2H1 (antibody, human IgG1, V domains shown)
VH: EVQLQESGPGLVKPSDTLSLTCTVSGFSLSSYDMSWIRQPPGKGLEWIGAIGGAGGTYYASWAKSRVTISVDTSLNQVSLKLSSVTAADTAVYYCARGWTRLDLWGQGTLVTVSS
VL: DIQLTQSPSFLSASVGDRVTITCQASEDISSNLAWYQQKPGKPPKLLIFPASNLASGVPSRFSGSGSGTEFTLTISSLQPEDFATYYCQGGYWTSTSNFGSGFGGGTKVEIK
B13: humanized anti-CD40 antibody 9E6-L3H1 (antibody, human IgG1, V domains shown)
VH: B12 VH
VL: B12 VL with S101T
B14: humanized anti-CD40 antibody 9E6-L1H1 (antibody, human IgG1, V domains shown)
VH: B12 VH
VL: B12 VL with S101N, G102V
B15: humanized anti-CD40 antibody 9E6-L4H1 (antibody, human IgG1, V domains shown)
VH: B12 VH
VL: B12 VL with S101Q
B16: humanized anti-CD40 antibody 9E6-L1H2 (antibody, human IgG1, V domains shown)
VH: B12 VH with E1Q, L4V
VL: B12 VL with S101N, G102V
B17: humanized anti-CD40 antibody 9E6-L3H2 (antibody, human IgG1, V domains shown)
VH: B12 VH with E1Q, L4V
VL: B12 VL with S101T
B18: humanized anti-CD40 antibody 9E6-L2H2 (antibody, human IgG1, V domains shown)
VH: B12 VH with E1Q, L4V
VL: B12 VL
B19: humanized anti-CD40 antibody 2F12-L2H1 (antibody, human IgG1, V domains shown)
VH: EVTLKESGPVLVKPTETLTLTCTVSGFSLSSYGVSWIRQPPGKALEWLAGIGSDGSAYYASWAKSRLTISRDTNLKQVVLTMTNMDPVDTATYYCARGGITVYAMWGQGTLVTVSS
VL: AFQLTQSPSSLSASVGDRVTITCQASQSISQGLAWYQQKPGKPPKLLIVGASNLASGVPSRFSGSGSGTDFTLTISSLQPEDFATYYCQSYFSSSSTVFGGGTKVEIK
B20: humanized anti-CD40 antibody 2F12-L4H1 (antibody, human IgG1, V domains shown)
VH: B19 VH
VL: B19 VL with Q31T
B21: humanized anti-CD40 antibody 2F12-L1H2 (antibody, human IgG1, V domains shown)
VH: B19 VH with L4V, A49G
VL: B19 VL with Q31N, G32V
B22: humanized anti-CD40 antibody 2F12-L3H2 (antibody, human IgG1, V domains shown)
VH: B19 VH with L4V, A49G
VL: B19 VL with Q31S
B23: humanized anti-CD40 antibody 2F12-L1H1 (antibody, human IgG1, V domains shown)
VH: B19 VH
VL: B19 VL with Q31N, G32V
B24: humanized anti-CD40 antibody 2F12-L2H2 (antibody, human IgG1, V domains shown)
VH: B19 VH with L4V, A49G
VL: B19 VL
B25: humanized anti-CD40 antibody 2F12-L3H1 (antibody, human IgG1, V domains shown)
VH: B19 VH
VL: B19 VL with Q31S

Target: T1, human CD40 on the cell surface (human, UniProt P25942 21-277)
T1 sequence (P25942 21-277): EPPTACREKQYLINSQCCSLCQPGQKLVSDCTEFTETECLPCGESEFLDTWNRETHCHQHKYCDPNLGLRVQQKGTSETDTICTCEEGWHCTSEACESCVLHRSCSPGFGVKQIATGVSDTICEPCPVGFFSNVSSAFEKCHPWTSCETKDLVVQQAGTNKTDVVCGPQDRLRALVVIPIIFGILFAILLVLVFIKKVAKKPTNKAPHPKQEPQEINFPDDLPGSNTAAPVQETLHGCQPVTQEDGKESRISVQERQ
Assay: cell-based or functional assay

reporter gene cell activity IC50 (HEK-Blue CD40L cells, SEAP) [nM]	Binder
0.217	B1
0.221	B2
0.317	B3
0.172	B4
0.203	B5
0.173	B6
0.197	B7
0.156	B8
0.182	B9
0.217	B10
0.378	B11

Target: T1, human CD40 on the cell surface
Assay: flow cytometry on Raji cells, Alexa Fluor 488 anti-human IgG (H+L) detection
Protocol: Raji cells were plated at 1.5E5/well, and various concentrations of CD40 antagonistic antibodies were added. The plate was incubated at 4° C. for 1 h. After two washes with FACS buffer (PBS+2% FBS), a secondary antibody (Alexa Flour488 conjugated anti-human IgG (H+L) antibody) was added, and the plate was incubated at 4° C. for 0.5 h.
After two washes with FACS buffer, the fluorescence intensity on the cell surface was measured by flow cytometry (BD FACS Celesta).

EC50 [nM]	Binder
1.99	B12
1.06	B13
1.08	B14
0.928	B15
1.05	B16
1.15	B17
1.66	B18
0.895	B2
0.479	B4
0.516	B19
0.508	B20
0.469	B21
0.762	B22
0.549	B23
0.516	B24
0.456	B25

Target: T1, human CD40 on the cell surface
Assay: flow cytometry on Raji cells, AF647 anti-human IgG detection
Protocol: Raji cells are of a tumor cell line that overexpresses human CD40. 2E5 Raji cells were inoculated onto a 96-well plate. 100 μL of a test antibody was added, with the highest final concentration of 100 nM. The antibody was 5-fold diluted to 8 concentrations. The plate was incubated at 4° C. for 1 h. […] The plate was incubated at 4° C. for 30 min. The plate was washed once with wash buffer, and fluorescence intensity was measured using a flow cytometer. The binding EC₅₀ values of the anti-CD40 antibodies for CD40 were calculated. The anti-CD40 antagonistic antibody CFZ533 (i.e., iscalimab, Nova) was used as a positive control, and the heavy and light chain variable region sequences were derived from sequence 5 and sequence 2 of U.S. Pat. No. 8,277,810B, respectively.

EC50 [nM]	Binder
0.608	B2
0.671	B3
0.412	B4
0.435	B5
0.258	B9
0.467	B10
1.51	B11
